One assay addresses T1, mouse VEGF (mouse, UniProt Q00731-2 27-190, limits assumed).
T1 construct: In indirect ELISA (source not described) and in mouse 3LL tumor sections
T1 sequence (looked up): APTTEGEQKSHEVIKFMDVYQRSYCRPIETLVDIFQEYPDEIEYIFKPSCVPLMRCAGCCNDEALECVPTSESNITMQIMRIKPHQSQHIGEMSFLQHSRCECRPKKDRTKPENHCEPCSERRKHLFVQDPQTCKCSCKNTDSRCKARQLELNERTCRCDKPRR
Nature of the assay: indirect ELISA.

The target of assay [1] is T2, recombinant human VEGF165 (human, UniProt P15692 27-191).
T2 construct: mature; Secreted VEGF is described as an obligate dimer; also called free VEGF; VEGF-biotin
Briefly: printed as 'Affinity'; estimated by ELISA and surface plasmon resonance analysis.

The target in assay [2] is T2, recombinant human VEGF165. Briefly: capture ELISA: biotinylated VEGF titrated onto wells coated with the antibody, peroxidase-avidin; concentration giving 50% maximal binding.
The target of a further assay is T3, VEGF:sFlk-1 complex (human; mouse, UniProt P15692 27-191; P35918 20-762, limits assumed, biotinylated).
T3 construct: mature;extracellular domain; also called VEGF:receptor complex
T3 sequence (P35918 20-762 limits assumed, one chain of several): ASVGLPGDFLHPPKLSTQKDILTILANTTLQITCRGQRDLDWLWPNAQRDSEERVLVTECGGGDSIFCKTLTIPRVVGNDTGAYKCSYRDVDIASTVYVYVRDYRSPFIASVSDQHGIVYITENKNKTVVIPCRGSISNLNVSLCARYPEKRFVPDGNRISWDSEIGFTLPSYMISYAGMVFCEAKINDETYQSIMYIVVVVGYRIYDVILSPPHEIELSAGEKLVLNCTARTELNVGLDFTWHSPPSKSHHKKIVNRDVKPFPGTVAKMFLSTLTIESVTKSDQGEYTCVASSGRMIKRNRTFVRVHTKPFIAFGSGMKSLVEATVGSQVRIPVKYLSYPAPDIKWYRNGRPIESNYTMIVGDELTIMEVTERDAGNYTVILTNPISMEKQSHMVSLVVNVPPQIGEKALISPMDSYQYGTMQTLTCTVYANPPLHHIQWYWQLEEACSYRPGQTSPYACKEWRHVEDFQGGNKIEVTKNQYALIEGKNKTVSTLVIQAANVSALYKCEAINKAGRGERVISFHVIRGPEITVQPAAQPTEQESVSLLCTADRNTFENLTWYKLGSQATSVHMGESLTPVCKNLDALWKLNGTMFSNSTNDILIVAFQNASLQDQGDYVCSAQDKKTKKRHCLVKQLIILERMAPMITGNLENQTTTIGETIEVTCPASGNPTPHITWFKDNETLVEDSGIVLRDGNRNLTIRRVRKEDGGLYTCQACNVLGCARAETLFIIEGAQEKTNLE
Briefly: capture ELISA: biotinylated sFlk-1 complexed with VEGF titrated onto wells coated with the antibody; concentration giving 50% maximal binding.

The target in assay [3] is T2, recombinant human VEGF165. Nature of the assay: ELISA on VEGF coated wells, HRP-labelled anti-mouse IgG and OPD. For orientation: ELISA stands for enzyme-linked immunosorbent assay.

B1: monoclonal antibody 2C3 (ATCC PTA 1595) (antibody, V domains shown)
VH: QVQLQESGPELVKPGASVKMSCKASGYTFTSYVFHWVKQKPGQGLEWIGYINPYNDVTKYNEKFKGKATLTSDKSSSTAYMELSSLTSEDSAVYYCASYYGSSYGYYAMDDWGQGTTVTVSS
VL: DIQLTQSPASLSVSAGEKVTMSCKSSQSLLNSGNQKNYLAWYQQKPGQPPKLLIHGASTRESGVPDRFTGSGSGTDFTLTISSVQAEDLAVYYCQNDYSYPLTFGAGTKLELKR
notes: also called 2C3 IgG
By Kd is commonly meant the free concentration of one partner at which half of the binding sites on the other are occupied at equilibrium, for simple one-to-one binding. Usually EC50 stands for the concentration at which the effect is half-maximal. Consider B1, for which the binding result in the assay with mouse VEGF is on record as “no binding”. The Kd in assay [1] is 1 nM. The half-maximal effective concentration (EC50) in assay [2] amounted to 1 nM; with VEGF:sFlk-1 complex it was 150 nM.

B2: 2C3-GUS conjugate (other)
VH: KLQVQLQESGPELVKPGASVKMSCKASGYTFTSYVFHWVKQKPGQGLEWIGYINPYNDVTKYNEKFKGKATLTSDKSSSTAYMELSSLTSEDSAVYYCASYYGSSYGYYAMDDWGQGTTVTVSSGGG
VL: DIQLTQSPASLSVSAGEKVTMSCKSSQSLLNSGNQKNYLAWYQQKPGQPPKLLIHGASTRESGVPDRFTGSGSGTDFTLTISSVQAEDLAVYYCQNDYSYPLTFGAGTKLELKRL
chain: MLRPVETPTREIKKLDGLWAFSLDRENCGIDQRWWESALQESRAIAVPGSFNDQFADADIRNYAGNVWYQREVFIPKGWAGQRIVLRFDAVTHYGKVWVNNQEVMEHQGGYTPFEADVTPYVIAGKSVRITVCVNNELNWQTIPPGMVITDENGKKKQSYFHDFFNYAGIHRSVMLYTTPNTWVDDITVVTHVAQDCNHASVDWQVVANGDVSVELRDADQQVVATGQGTSGTLQVVNPHLWQPGEGYLYELCVTAKSQTECDIYPLRVGIRSVAVKGEQFLINHKPFYFTGFGRHEDADLRGKGFDNVLMVHDHALMDWIGANSYRTSHYPYAEEMLDWADEHGIVVIDETAAVGFNLSLGIGFEAGNKPKELYSEEAVNGETQQAHLQAIKELIARDKNHPSVVMWSIANEPDTRPQGAREYFAPLAEATRKLDPTRPITCVNVMFCDAHTDTISDLFDVLCLNRYYGWYVQSGDLETAEKVLEKELLAWQEKLHQPIIITEYGVDTLAGLHSMYTDMWSEEYQCAWLDMYHRVFDRVSAVVGEQVWNFADFATSQGILRVGGNKKGIFTRDRKPKSAAFLLQKRWTGMNFGEKPQQGGKQ
modifications: SATA-modified, deacetylated; SMCC-modified IgG, linked by thioether to SATA-modified GUS
notes: Chemical conjugate of 2C3 IgG (mouse IgG2a,k) and 6-His GUS; GUS runs as a tetramer of about 300 kDa on gel filtration; not shown: N-terminal 6x histidine tag encoded by vector H6pQE60
With B2, in assay [3], the half-maximal effective concentration (EC50) was 0.1 nM.
